Test results: the supplement of paper PMC9170038

System: MS2 coat protein
Test: apparent KD of MS2 coat protein; designed switch direction (-1 OFF switch, 1 ON switch): -1; higher = weaker reporter binding
Method in brief: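 On Illumina chips, designed RNA switches with common flanks were made by stalled E. coli RNA polymerase. Titrations with SNAP-549-labelled MS2 coat protein, doubling from 0.7 or 1.5 nM to 3 µM, were done with no input, with 200 uM small-molecule ligand, or with an oligonucleotide input. Apparent KD is the median per design over clusters, from curve fits of normalised cluster fluorescence.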

[1] = input ligand: microRNA oligo, concentration not stated
[2] = Eterna round: R95, input ligand: FMN 200 uM
[3] = Eterna round: R95, input ligand: microRNA oligo, concentration not stated
[4] = Eterna round: R95, input ligand: none

| Sequence | apparent KD of MS2 coat protein [1] | apparent KD of MS2 coat protein [2] | apparent KD of MS2 coat protein [3] | apparent KD of MS2 coat protein [4] | apparent KD of MS2 coat protein (input ligand: FMN 200 uM) | apparent KD of MS2 coat protein (input ligand: none) |
| --- | --- | --- | --- | --- | --- | --- |
| ACGAAACAUGAGGAUCACCCAUGUGAGGAUAUGUAAAUAGUAAACAAAUAAGAAAUAAACAGAAGGCACACAGG [JR_Exclusion1_Sub004] (Eterna round: R96, puzzle: Exclusion 1) | 24.3 nM |  |  |  |  |  |
| ACGAAACAUGAGGAUCACCCAUGUGAGGAUAUGUAAAUAGUAAACAAAUAAGAAAUAAACAGAAGGCACACAGG [JR_Exclusion1_Sub004] (puzzle: Exclusion 1) |  | 57.2 nM | 26.3 nM | 28.2 nM |  |  |
| ACGAAGCACGAGGAUAUGACCAUAGUGAUAUGGUCAGAAGGCGUAACAUGAGGAUCACCCAUGUAGUGGCCUCG [Eternabot (Original) Solution 12] (Eterna round: R97, puzzle: Exclusion 6) |  |  |  |  | 212 nM | 20.1 nM |
| ACGCAUUGCCAAAGGUAGUGCGUUACAUGAGGAUCACCCAUGUAGGAUAUGGUAGGCAAAGCUUACCAGAAGGACAUGAUAAUU [Mat - Exclusion NG 3 - Mod of JL - D6] (Eterna round: R96, puzzle: Exclusion NG 3) | 44.8 nM |  |  |  | 227 nM | 51.2 nM |
| ACGCAUUGCCUUUGGUAGUGCGUAACAUGAGGAUCACCCAUGUAGGAUAUGGUAGGCAAAGCUUACCAGAAGGACAUAAUAAUU [Mat - Exclusion NG 3 - Mod of JL - D3] (Eterna round: R96, puzzle: Exclusion NG 3) | 31.4 nM |  |  |  | 73 nM | 32.7 nM |
| ACGCCGCAAGGAUAUACUUGCGGUGAUGUUCGAGUUCUUCUACUUGAGGAUCACCCAAGUAGAAGGUGCAAAAC [jl-ex2.4.60 ViennaUCT mod] (Eterna round: R97, puzzle: Exclusion 2) |  |  |  |  | 14.9 nM | 14 nM |
| ACGCGAGUAGGAGGAUAUUCCGAGCGCGGGCCGGGAGAAGGCCUAGAUCGUGAACAUGAGGAUCACCCAUGUGGGAUGAUCUAA [Ededaranri] (Eterna round: R96, puzzle: Exclusion NG 1) | 94.9 nM |  |  |  | 8.23 nM | 313 nM |
| ACGUAUAGAGGAUAUAGUGAAUAUUACAUGAGGAUCACCCAUGUUCUUCAAAGCAUAUUCCUAGAAGGCUAAUGAA [EX-5 Malc#12] (puzzle: Exclusion 5) |  | 113 nM | 44.4 nM | 56.4 nM |  |  |
| ACGUCCUUGGUAAGGAUAUCGAUGGAGGCGAUCCACGAGAAGGUACAUGAGGAUCACCCAUGUAUACGAAUACG [Eternabot (L1) Solution 94] (Eterna round: R97, puzzle: Brourd's mod of Exclusion 4) |  |  |  |  | 18.4 nM | 17.8 nM |
| ACUAAACAUGUAGGAUAUGCGUGGCGAAGCUAUGCAGAAGGACAUGAGGAUCACCCAUGUUUUAGCGUCUGCGUACAGAUGCGU [JL ENG1 1.44] (Eterna round: R96, puzzle: Exclusion NG 1) | 17.5 nM |  |  |  | 200 nM | 22.7 nM |
| ACUACUAACACGAAAGUGUUAGUACAAUAAGCUUGUGAAACAUGAGGAUCACCCAUGUCCUCAUAAGCUCGUCUUAA [salish99_TOv2_r3_012] (puzzle: Sensor v3, turn-off variant 2) |  | 14.4 nM | 211 nM | 13.8 nM |  |  |
| ACUAGAUGAGGAUAUACACAUUUUAGUGUUCCUCUAGAUUAACAUGAGGAUCACCCAUGUAGAAGGCAUCAUUA [Exclusion 2 - 9] (puzzle: Exclusion 2) |  |  | 65 nM |  |  |  |
| ACUAGAUGAGGAUAUGCAUGUUUUCGUGUUCUUCUAGAUUAACAUGAGGAUCACCCAUGUAGAAGGCGUCAAUU [Exclusion 2 - 28] (puzzle: Exclusion 2) |  |  | 48 nM |  |  |  |
| ACUCAGUCAGGAUAUCAAUCCGCCUGUGAUACGCAGGCGGCUGAGAAGGGACAUGAGGAUCACCCAUGUAAAGA [jl-ex4-4.18 ViennaUCT mod] (Eterna round: R97, puzzle: Exclusion 4) |  |  |  |  | 538 nM | 129 nM |
| ACUGGAGCAGGAUAUACAUAACGUGCUUCGGCACGAGAUCUACAUGAGGAUCACCCAUGUAGAAGGGCUCCAGU [E2/10-D1] (Eterna round: R97, puzzle: Exclusion 2) |  |  |  |  | 28.3 nM | 13.3 nM |
| ACUGGUCGAGGAUAUACAUGAGGAUCACCCAUGUGGUCACGUGACGAUAGUCACGAAUGUAGAAGGCGACCAGU [E3/3-A2] (Eterna round: R97, puzzle: Exclusion 3) |  |  |  |  | 15.7 nM | 123 nM |
| ACUGGUCGAGGAUAUACAUGAGGAUCACCCAUGUGGUCACGUGACUUCGGUCACGAAUGUAGAAGGCGACCAGU [E3/3-A5] (Eterna round: R97, puzzle: Exclusion 3) |  |  |  |  | 61.4 nM | 188 nM |
| ACUGUUUGAUUCCUCUUAUACAUGAGGAUCACCCAUGUUAUCGAGGAUAUGCAUUAGAGUGUUUAGCAGAAGGCGAUGUAAUUG [JR_ExcNG3_Sub033] (Eterna round: R96, puzzle: Exclusion NG 3) | 8.68 nM |  |  |  | 112 nM | 17.9 nM |
| ACUUACUGAGGAUAUACAUAGAUAAACAUGAGGAUCACCCAUGUUCCUAUAAGUAUAUAUGUAGAAGGCAGAAGAA [JR_Ex5_Sub074] (Eterna round: R97, puzzle: Exclusion 5) |  |  |  |  | 24.2 nM | 14.7 nM |
| ACUUAUAGAGGAUAUACAGAAUAUUACAUGAGGAUCACCCAUGUUCUUCAAUGUAUAUAAGUAGAAGGCUAAGGUU [Mat - Exclusion 5 - JL Mod - D5] (Eterna round: R97, puzzle: Exclusion 5) |  |  |  |  | 282 nM | 33.4 nM |
| ACUUAUAGAGGAUAUACAGUUUAUUACAUGAGGAUCACCCAUGUUCUUCAAUGUCCUAAAGUAGAAGGCUAAGGAA [Mat - Exclusion 5 - Eli Mod - D12] (Eterna round: R97, puzzle: Exclusion 5) |  |  |  |  | 18.8 nM | 16.2 nM |
| ACUUAUUGAGGAUAUACAGAUUAUUACAUGAGGAUCACCCAUGUUCUUCAAUGUAUAUAUGUAGAAGGCAGAGGAU [Mat - Exclusion 5 - JL Mod - D13] (Eterna round: R97, puzzle: Exclusion 5) |  |  |  |  | 221 nM | 73.7 nM |
| ACUUAUUGAGGAUAUACAUAAAUUUACAUGAGGAUCACCCAUGUUCUUCUAUGUAUAUAUGUAGAAGGCAGAAGAG [Mat - Exclusion 5 - JL Mod - D33] (Eterna round: R97, puzzle: Exclusion 5) |  |  |  |  | 30.1 nM | 17.2 nM |
| ACUUGCUUUUUGCUCGUCUUAUUUUUGUUGACGUUCUAUACAUGAGGAUCACCCAUGUUUUGUUCCUUGUGCUGGUA [JR_SV3TOV2_Sub073] (puzzle: Sensor v3, turn-off variant 2) |  | 169 nM | 183 nM | 166 nM |  |  |
| AGAAAGCAAGGAUAUACAAAGAAACGACCGAAAGAAAAGAAACAUGAGGAUCACCCAUGUAGAAGGUGCAAGAA [JR_Exclu2_Sub031] (puzzle: Exclusion 2) |  | 19 nM | 12.8 nM | 17.7 nM |  |  |
| AGAAAGCAAGGAUAUACGAGGAGAAGGUGGAGAGUUAAAGGACAUGAGGAUCACCCAUGUAGAAGGUGCGAGAA [JR_Exclu2_Sub044] (puzzle: Exclusion 2) |  | 122 nM | 67.1 nM | 72 nM |  |  |
| AGAAAGGCCCAUGGCCGCAAGCUUUUUGCUUGUCUUACCACAUGAGGAUCACCCAUGUGACAUGGGCUCCUGAUAAU [Atveuser] (puzzle: Sensor v3, turn-off variant 2) |  | 14.3 nM | 10.4 nM | 13.3 nM |  |  |
| AGAAGUAGAAACCGAUCCUACAUGAGGAUCACCCAUGUAGCAAGACGUGCACGCGAAGCUCGUCAGACUACCAGAAU [salish99_TOv1_r3_006] (puzzle: Sensor v3, turn-off variant 1) |  | 340 nM | 193 nM | 347 nM |  |  |
| AGAAGUAGUAACCGAUCCUACAUGAGGAUCACCCAUGUAGCUAGACGUGCACGCGAGGCUCGUCAGACUACCAGAUG [salish99_TOv1_r3_028] (puzzle: Sensor v3, turn-off variant 1) |  | 210 nM | 133 nM | 289 nM |  |  |
| AGACGAUCGUAGGAUAUCGGAAGGUCACUGGACUGAGAAGGACGAACAUGAGGAUCACCCAUGUGAUCUCUGGU [Eternabot (L2) Solution 43] (Eterna round: R97, puzzle: Exclusion 6) |  |  |  |  | 779 nM | 734 nM |
